In article PMC6331220:

Molecular target: T1, BsSsbA (Bacillus subtilis, UniProt P37455 1-104)
T1 sequence: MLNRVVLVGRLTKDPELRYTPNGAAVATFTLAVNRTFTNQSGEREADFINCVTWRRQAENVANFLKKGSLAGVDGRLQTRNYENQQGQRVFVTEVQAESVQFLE
Test: X-ray crystallography

TTTTTTTTTTTTTTTTTTTTTTTTTTTTTTTTTTT (ssDNA) [dT35]: binds.
